The source of these data is patent US20040229242, “Methods of capturing, detecting and quantifying RNA:DNA hybrids and a modified RNase H useful therein” (published 2004).

The target in series [1] is T1, E. coli RNase H1 D134A (nuclease-deficient parent) (Escherichia coli) (UniProt P0A7Y4).
T1 sequence: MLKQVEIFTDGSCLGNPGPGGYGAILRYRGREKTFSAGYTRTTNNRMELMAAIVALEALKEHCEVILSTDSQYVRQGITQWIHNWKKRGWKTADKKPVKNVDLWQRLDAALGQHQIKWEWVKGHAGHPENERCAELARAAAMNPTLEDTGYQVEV
In words: competition. As to conditions: 25 C.

The target in series [2] is T2, RNase H1 D94G/D134A mutant (Escherichia coli, UniProt P0A7Y4 SEQ:1-155).
T2 chain: T1 sequence with D94G
In words: competition. As to conditions: 25 C.

Series [3] addresses T2, RNase H1 D94G/D134A mutant. In words: filter; 50 mM NaCl, 1 mM EDTA, HEPES pH 7.0, 25 C.
Series [4] addresses T3, E. coli RNase H1 D134A (nuclease-deficient parent) (Escherichia coli, UniProt P0A7Y4 SEQ:1-155).
T3 chain: T1 sequence
In words: filter; 50 mM NaCl, 1 mM EDTA, HEPES pH 7.0, 25 C. The note with it: label: 32P.

Series [5] deals with T3, E. coli RNase H1 D134A …. In words: FP filter; nitrocellulose filter binding; 50 mM NaCl, 1 mM EDTA, 20 mM HEPES pH 7.0, 25 C. The note with it: label: 32P end label on DNA strand. As for the experimental part: In the experiment, serial dilutions of the indicated RNase H proteins were individually incubated in 1×FB Buffer [100 μg/ml BSA; 50 mM NaCl; 1 mM EDTA; 20 mM HEPES, pH 7.0] with a radiolabeled RNA:DNA hybrid of the following sequence:
After 30 minutes incubation at 25° C., the 50 μl reactions were filtered quickly through buffer-equilibrated nitrocellulose filters and washed twice with 500 μl Wash Buffer [10% Glycerol, 50 mM NaCl; 1 mM EDTA; 20 mM HEPES, pH 7.0]. […] The amount of RNA:DNA hybrid retained by each filter was directly quantitated from the damp filters by Cerenkov counting. Each protein was tested in triplicate and the results averaged. Control filters to determine total input radioactivity were used to calculate the percent of total input hybrid bound. SDS-PAGE and densitometry re-confirmed protein concentrations.

The mark [6] stands for this setting: competition vs RNA:DNA#1, filter binding.
The mark [7] stands for this setting: competition vs RNA:DNA#2, filter binding.
The mark [8] stands for this setting: competition vs RNA:DNA#3, filter binding.

Positions count from the first letter of the chain named.

Consider “heat-denatured sheared salmon sperm ssDNA”, for which the IC50 in series [1] (setting [6]) was 1.7 µM; in series [1] (setting [7]) it was 5.5 µM; in series [1] (setting [8]) it was 2.9 µM; in series [2] (setting [6]), 9 µM; in series [2] (setting [7]), 15 µM; in series [2] (setting [8]), 10 µM.

B1: RNA:DNA#2 (DNA:RNA)
RNA: GGCGAACAGGACUGCGUAUGAUAGG
DNA: CCTATCATACGCAGTCCTGTTCGCC
Consider B1, for which the Kd in series [3] (label: 32P) turned out to be 0.006 µM; in series [4], 0.008 µM.

B2: RNA:DNA#1 (DNA:RNA)
RNA: GGACCGGAAAGGUACGAGCAUGUGA
DNA: TCACATGCTCGTACCTTTCCGGTCC
With B2, the results for the Kd in series [5] and in series [3] (label: 32P end label on DNA strand) were 0.01 µM and 0.0051 µM, respectively.

B3: RNA:DNA#3 (DNA:RNA)
RNA: AGUUCGACGAGCAUGGAGAGGUCAG
DNA: CTGACCTCTCCATGCTCGTCGAACT
B3: the Kd in series [3] (label: 32P) stood at 0.0055 µM; in series [4], 0.008 µM.
